Measured values as given in patent US20240336672A1 (INSTITUT PASTEUR, published 2024).

Legend:
[1] = target: T1, CoV-OC43 Spike ectodomain (OC43-CoV, UniProt P36334 14-1263); experiment: ELISA, coated antigen; further: test concentration or dose not given here
T1 chain: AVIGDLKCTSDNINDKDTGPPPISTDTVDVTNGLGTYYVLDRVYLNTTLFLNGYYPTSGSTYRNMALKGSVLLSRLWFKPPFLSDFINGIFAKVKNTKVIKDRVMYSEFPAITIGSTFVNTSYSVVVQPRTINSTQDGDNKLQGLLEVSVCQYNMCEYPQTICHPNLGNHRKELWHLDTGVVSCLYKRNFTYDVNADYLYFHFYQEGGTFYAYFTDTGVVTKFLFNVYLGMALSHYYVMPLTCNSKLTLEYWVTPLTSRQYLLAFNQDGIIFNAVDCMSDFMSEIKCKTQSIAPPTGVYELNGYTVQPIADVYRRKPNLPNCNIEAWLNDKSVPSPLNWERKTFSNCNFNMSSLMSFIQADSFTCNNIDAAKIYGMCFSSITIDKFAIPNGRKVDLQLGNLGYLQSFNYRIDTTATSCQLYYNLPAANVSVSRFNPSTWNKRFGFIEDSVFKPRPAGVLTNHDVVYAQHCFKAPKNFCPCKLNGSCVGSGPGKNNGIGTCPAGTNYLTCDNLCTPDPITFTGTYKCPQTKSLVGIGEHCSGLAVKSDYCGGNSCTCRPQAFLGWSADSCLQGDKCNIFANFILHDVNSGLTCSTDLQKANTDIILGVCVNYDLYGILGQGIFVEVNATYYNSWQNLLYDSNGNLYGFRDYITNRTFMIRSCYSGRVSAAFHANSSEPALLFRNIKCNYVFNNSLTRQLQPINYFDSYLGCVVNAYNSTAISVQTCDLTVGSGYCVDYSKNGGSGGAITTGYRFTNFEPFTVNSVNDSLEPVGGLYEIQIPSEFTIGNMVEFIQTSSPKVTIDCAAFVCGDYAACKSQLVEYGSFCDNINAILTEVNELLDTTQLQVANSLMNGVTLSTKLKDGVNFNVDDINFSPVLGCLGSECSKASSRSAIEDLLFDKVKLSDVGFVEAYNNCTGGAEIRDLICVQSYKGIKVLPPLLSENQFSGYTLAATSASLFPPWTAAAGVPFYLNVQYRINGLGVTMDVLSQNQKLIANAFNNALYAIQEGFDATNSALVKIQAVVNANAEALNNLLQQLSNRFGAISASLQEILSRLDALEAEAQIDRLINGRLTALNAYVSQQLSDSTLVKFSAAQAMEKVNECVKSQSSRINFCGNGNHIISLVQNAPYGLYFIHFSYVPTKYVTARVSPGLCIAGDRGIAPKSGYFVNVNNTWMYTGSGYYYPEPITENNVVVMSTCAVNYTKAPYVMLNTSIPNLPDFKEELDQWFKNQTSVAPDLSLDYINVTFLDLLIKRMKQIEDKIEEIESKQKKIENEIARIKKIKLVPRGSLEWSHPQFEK

[2] = target: T2, CoV-229E Spike ectodomain (229E-CoV, UniProt P15423 16-1113); experiment: ELISA, coated spike ectodomain
T2 chain: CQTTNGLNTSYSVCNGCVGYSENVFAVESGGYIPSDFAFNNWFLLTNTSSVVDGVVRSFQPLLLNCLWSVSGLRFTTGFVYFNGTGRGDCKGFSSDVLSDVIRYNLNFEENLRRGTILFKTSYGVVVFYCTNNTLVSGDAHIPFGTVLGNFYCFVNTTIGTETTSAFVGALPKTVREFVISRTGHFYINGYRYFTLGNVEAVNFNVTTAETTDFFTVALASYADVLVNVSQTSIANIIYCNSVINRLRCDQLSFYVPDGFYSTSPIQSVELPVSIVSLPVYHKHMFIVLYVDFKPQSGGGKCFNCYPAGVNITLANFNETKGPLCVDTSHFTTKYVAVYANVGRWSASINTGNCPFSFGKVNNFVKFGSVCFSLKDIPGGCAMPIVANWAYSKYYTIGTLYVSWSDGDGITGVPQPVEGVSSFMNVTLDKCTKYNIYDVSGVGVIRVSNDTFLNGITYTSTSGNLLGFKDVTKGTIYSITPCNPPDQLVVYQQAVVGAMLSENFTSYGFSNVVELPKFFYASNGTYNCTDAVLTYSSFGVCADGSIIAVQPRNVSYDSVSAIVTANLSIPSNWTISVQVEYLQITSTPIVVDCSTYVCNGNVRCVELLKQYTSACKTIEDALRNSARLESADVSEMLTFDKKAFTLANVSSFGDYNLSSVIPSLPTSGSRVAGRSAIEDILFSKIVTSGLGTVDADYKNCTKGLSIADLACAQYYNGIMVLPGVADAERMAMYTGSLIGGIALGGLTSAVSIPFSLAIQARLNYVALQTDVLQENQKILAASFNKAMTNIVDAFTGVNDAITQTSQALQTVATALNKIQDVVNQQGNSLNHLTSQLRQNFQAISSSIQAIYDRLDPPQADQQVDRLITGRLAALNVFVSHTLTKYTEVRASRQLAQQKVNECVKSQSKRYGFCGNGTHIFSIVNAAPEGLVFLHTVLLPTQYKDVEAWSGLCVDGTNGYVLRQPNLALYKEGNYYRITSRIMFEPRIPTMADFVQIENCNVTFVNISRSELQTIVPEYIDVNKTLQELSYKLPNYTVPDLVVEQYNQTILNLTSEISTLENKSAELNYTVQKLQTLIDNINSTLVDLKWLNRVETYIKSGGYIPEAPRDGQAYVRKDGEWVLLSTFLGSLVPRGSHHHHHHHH

Binder | ELISA OD [1] | binding result [2]
Cv2.1169 (recombinant human IgG1) (antibody, also called Cv2.1169 IgG) heavy: QVQLVQSGPEVKKPGTSVKVSCKASGFTFTTSAVQWVRQARGQRLEWIGWIVVGSGNTNYAQKFQERVTITRDMSTTTAYMELSSLRSEDTAVYYCAAPYCSGGTCLDGFDIWGQGTMVTVSSASTKGPSVFPLAPSSKSTSGGTAALGCLVKDYFPEPVTVSWNSGALTSGVHTFPAVLQSSGLYSLSSVVTVPSSSLGTQTYICNVNHKPSNTKVDKKVEPKSCDKTHTCPPCPAPELLGGPSVFLFPPKPKDTLMISRTPEVTCVVVDVSHEDPEVKFNWYVDGVEVHNAKTKPREEQYNSTYRVVSVLTVLHQDWLNGKEYKCKVSNKALPAPIEKTISKAKQPREPQVYTLPPSRDELTKNQVSLTCLVKGFYPSDIAVEWESNGQPENNYKTTPPVLDSDGSFFLYSKLTVDKSRWQQGNVFSCSVMHEALHNHYTQKSLSLSPGK light: not shown | 0.1 OD | no binding
Cv2.3194 (recombinant human IgG1) (antibody, V domains shown) VH: EVQLVESGGGLIQPGGSLRLSCAASGITVTSNYMSWVRQAPGKGLEWVSVIYPGGSTFYADSVKGRFTISRDNSKNTLYLQMNSLRAEDTAVYYCARDLVVYGMDVWGQGTTVTVSS VL: EIVLTQSPGTLSLSPGERATLSCRASQSVSSSYLAWYQQKPGQAPRLLIYGASSRATGIPGRFSGSGSGTDFTLTISRLEPEDFAIYYCQQGVTFGGGTKVEIKR | 0.8 OD | no binding
Cv2.3235 (recombinant human IgG1) (antibody, V domains shown) VH: EVQLVESGGGLIQPGGSLRLSCAASGFTVSRNYMSWVRQAPGKGLEWVSVIYSGGSTFYADSVKGRFTISRDNSKNTLYLQMNSLRAEDTAVYYCARDGDYYGMDVWGQGTTVTVSS VL: DIQMTQSPSFLSASVGDRVTITCRASQGISSFLAWYQQKPGKAPKLLIYGASTLQSGVTSRFSGSGSGTEFTLTISSLQPEDFATYYCQRLDSYPPITFGQGTRLEIKR | 0.3 OD | no binding
Cv2.5213 (recombinant human IgG1) (antibody, V domains shown) VH: EVQLVESGGGLIQPGGSLRLSCAASGFTVSSNYMSWVRQAPGKGLEWVSLIYSGGSTYYADSVKGRFTISRDNSKNTLYLQMNSLRAEDTAVYYCARDLNYYGMDVWGQGATVTVSS VL: DIQMTQSPSSLSASVGDRVTITCRASQGISSYLAWYQQKPGKAPKLLIYAASTLQSGVPSRFSGSGSGTDFTLTISSLQPEDFATYYCQQLDSYSPFTFGPGTKVDIKR | 0.7 OD | no binding
Cv2.1353 (recombinant human IgG1) (antibody, V domains shown) VH: EVQLVESGGGLVQPGGSLRLSCAASGVTVSSNYMNWVRQAPGKGLEWVSVIYSGGSTFYADSVKGRFIISRDNSKNTLYLQMNSLKTEDTAVYYCARDLGPMGFDIWGQGTMVTVSS VL: DIQMTQSPSFLSASVGDRVTITCRASQGISSYLAWYQQKPGKAPKLLIYAASTLQSGVPSRFSGSGSGTEFTLTISSLQPEDFATYYCQQLNSDPPVTFGPGTKVDIKR | 0.8 OD | no binding
